Test results taken from paper PMC5444744, “Interaction between granulin A and enolase 1 attenuates the migration and invasion of human hepatoma cells” (Oncotarget, 2017).

Target: T1, ENO1 (bought, ATGen #ATGP0404) (UniProt P06733 1-434)
T1 construct: ENO1 (α-enolase), bought protein, ATGen #ATGP0404; also called α-enolase; source: bought: ATGen (#ATGP0404)
Assay: SPR; ENO1 immobilised directly on CM5 chip (8171 RU, 10 mM sodium acetate pH 5.0); GRN A 3.5-112.0 μM in HBS-EP (10 mM HEPES, 150 mM NaCl, 3 mM EDTA, 0.05% P20) at 30 μL/min; BIACORE T200; KD = Koff/Kon
Settings: both partners purified

T1 sequence (P06733 whole entry): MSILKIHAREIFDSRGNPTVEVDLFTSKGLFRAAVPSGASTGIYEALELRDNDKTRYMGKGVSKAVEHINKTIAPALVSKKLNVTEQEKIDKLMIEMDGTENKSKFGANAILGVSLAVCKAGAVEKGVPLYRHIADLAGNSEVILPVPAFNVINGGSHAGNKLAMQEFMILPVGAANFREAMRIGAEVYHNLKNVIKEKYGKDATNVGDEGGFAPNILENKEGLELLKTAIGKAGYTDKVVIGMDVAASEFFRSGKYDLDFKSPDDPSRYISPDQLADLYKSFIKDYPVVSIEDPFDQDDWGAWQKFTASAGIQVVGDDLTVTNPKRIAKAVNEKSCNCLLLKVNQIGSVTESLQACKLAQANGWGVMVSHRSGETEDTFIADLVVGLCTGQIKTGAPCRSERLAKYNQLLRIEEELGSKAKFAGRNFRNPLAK

Kd: 56 µM
B1: Granulin A (His-GRN A) (peptide, UniProt P28799 281-336, looked up)
chain: DVKCDMEVSCPDGYTCCRLQSGAWGCCPFTQAVCCEDHIHCCPAGFTCDTQKGTCE
notes: granulin A (GRN A), a peptide of about 6 kDa with 12 cysteine residues, derived from proteolysis of progranulin (PGRN); The source and limits of the His-tagged GRN A are not described; The SPR methods call the analyte only 'GRN A'
